Substrate: C#CCCCCC(=O)O
Test: purified protein
Assay type: biochemical, Synechocystis salina
Conditions: co-substrate bartoloside G (5) 100 μM, 20 mM HEPES, 50 mM NaCl, 10 mM MgCl2, 5 mM CaCl2, pH 8.0, 37 °C, standard error, n = 3

B1: NStrep-BrtB (Synechocystis salina LEGE 06099) (protein)
chain: MANPFDVALTNLNSLYSGIPDVPVLQTYNSLNPYDISLTNLNNLSNFVIEPAVLPTAAGTYGPQISEIAFALGGGIITGALADLLSTELGIEIENEALITKFLSFWTPGSDYAFGQDYVEFIQGREGFDTIIGYDPGFNSALAPVQIDFVLGGPRQDFNFFAPLDEPARYVLGDWRTPYYVDNDIQSEGLNEFMYVSLFTLNPDEFSPDNAENHRIQLYGSLDNYYFVPTTVVIDGSALDPSLPSIPVPGTEIYYKTGQVFADLIAIVPFQDPNDPNLISAWIDFEGYLPPEQADLSGQTANPLLSGSPLLQLGYEGIDMGTATALAPDGDIYVAGSTSSLLGPFPRGGSDNFIARYNDDGSLEWIVQFGSTEFDIITDIVSDSAGNVYATGWTRGNVETGFGLAPGVQDNWVAKFDANGSQLWVEQFTIDGYLDRSMGIALDEVNGRIHLTGHSNTDGSVADTNDPAIVPNGNVVTWIAGFDANTGAEDYRNVFEVAQTSNSRGRIDEGFGIDVDDAGNVFSTGWAGENAYDVYLVKSDTDGAVLWTKSFGTGSNATQSYAWDVASDGTNAYILGWTQGELNTFRDQIPPTDEFAGNATAPLTPQNAYQGGTFDAFVAAYDTDGTELWTWHVGGTGDDGTFFGKIVAAGDFVYATGYTDGFIGTLGGSNAGDYDAWIGKFDKLTGQTAWIQQIGSTKLDYATGISVDGDDIFVTGFTEGSLGGLNGGASDAWVAKLNQDGALEAFNVSAPIAPPAPFAPPAPLTPPAPPAPDLSSLQSLGSTPQPTYPALGDSYGTNPFGTQPTQPTYDLSSMYQNAYYGGFGGYSGYGY
notes: N-terminal Strep-Tag, pET-51b, E. coli BL21 (DE3) Rosetta; cloning primers imply N-terminus MANPF and C-terminus GYGY; two protein preparations pooled 1:1
Km: 234 ± 41 µM

Source: paper PMC7081238, “BrtB is an O-alkylating enzyme that generates fatty acid-bartoloside esters” (Nature Communications, 2020)
